Laboratory results published in patent EP2305804B1.
Where “and” joins values, the source holds several entries; their conditions need not be identical. Identical values can stand only once.

Biological target: Rabbit GH receptor, full length, stably expressed on murine FDC-P1 cells (GH-R4 cell line) (rabbit) (UniProt P19941)
Assay: cell-based or functional assay

Chain of UniProt P19941 (P19941 19-638): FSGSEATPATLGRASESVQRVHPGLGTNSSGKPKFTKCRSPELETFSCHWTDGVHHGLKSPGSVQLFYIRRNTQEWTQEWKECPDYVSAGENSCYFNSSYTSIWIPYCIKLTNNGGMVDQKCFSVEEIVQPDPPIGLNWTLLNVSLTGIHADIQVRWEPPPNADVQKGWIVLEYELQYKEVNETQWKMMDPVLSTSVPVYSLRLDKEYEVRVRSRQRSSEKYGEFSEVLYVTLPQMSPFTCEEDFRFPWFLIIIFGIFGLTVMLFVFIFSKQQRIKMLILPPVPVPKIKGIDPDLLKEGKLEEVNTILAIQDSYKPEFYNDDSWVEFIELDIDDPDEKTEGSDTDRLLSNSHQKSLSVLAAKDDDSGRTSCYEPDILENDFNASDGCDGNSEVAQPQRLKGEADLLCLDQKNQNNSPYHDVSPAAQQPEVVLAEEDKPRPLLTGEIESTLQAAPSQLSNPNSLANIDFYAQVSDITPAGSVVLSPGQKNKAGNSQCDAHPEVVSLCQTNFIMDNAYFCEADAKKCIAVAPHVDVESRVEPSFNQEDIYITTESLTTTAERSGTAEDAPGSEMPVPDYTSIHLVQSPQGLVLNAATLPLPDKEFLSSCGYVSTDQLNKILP

Substance | EC50, individual experiment, MTS cell proliferation assay, GH-R4 cells | Mean EC50, MTS cell proliferation assay, GH-R4 cells [ng/mL] | Mean EC50 in molar units, MTS cell proliferation assay, GH-R4 cells [nM] | also measured
PEG-S144C, monoPEGylated hGH cysteine mutein S144C (5 kDa maleimide-PEG) (from UniProt P01241 27-217) (ligand) | 40 ng/mL and 45 ng/mL | 43 | 2 | –
PEG-T3C, monoPEGylated hGH cysteine mutein T3C (5 kDa maleimide-PEG) (from UniProt P01241 27-217) (ligand) | – | 1.6 | 0.07 | –
Wild-type recombinant human growth hormone (rhGH), secreted to the E. coli periplasm with the stII signal sequence (from UniProt P01241 27-217) (ligand) | 0.8 ng/mL and 1.1 ng/mL | 0.8 | – | –
hGH cysteine mutein S144C (from UniProt P01241 27-217) (ligand) | – | 1.6 | – | –
hGH cysteine mutein T3C, disulfide-linked homodimer (from UniProt P01241 27-217) (ligand) | – | – | – | Mean EC50, MTS cell proliferation assay, GH-R4 cells (T3C dimer): 1.4 ng/mL
hGH cysteine mutein T148C (from UniProt P01241 27-217) (ligand) | – | – | – | EC50, individual experiment, MTS cell proliferation assay, GH-R4 cells (T148C-lotA): 0.4 ng/mL and 0.5 ng/mL; EC50, individual experiment, MTS cell proliferation assay, GH-R4 cells (T148C-lotB): 1.5 ng/mL and 1.9 ng/mL and 3.1 ng/mL; Mean EC50, MTS cell proliferation assay, GH-R4 cells (T148C-lotA): 0.5 ng/mL; Mean EC50, MTS cell proliferation assay, GH-R4 cells (T148C-lotB): 2.5 ng/mL
